{"source": "paper PMC11188170", "about": "“A comprehensive analysis of the WRKY family in soybean and functional analysis of GmWRKY164-GmGSL7c in resistance to soybean mosaic virus”", "binders": {"B1": {"name": "GmGSL7c promoter W-box probe (dsDNA)", "DNA 1": "TAGCCCAACTCATCAGAAGAAGGTCAATGTAATAGTA", "DNA 2": "TACTATTACATTGACCTTCTTCTGATGAGTTGGGCTA"}}, "molecular_target": "GmWRKY164 (Glycine max, UniProt K7MND9 1-149)", "sequence (K7MND9 entry or part of it)": "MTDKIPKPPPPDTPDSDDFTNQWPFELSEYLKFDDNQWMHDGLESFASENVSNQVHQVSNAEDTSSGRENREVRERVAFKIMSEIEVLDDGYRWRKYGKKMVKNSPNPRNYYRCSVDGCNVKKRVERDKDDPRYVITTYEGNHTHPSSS", "assay": "EMSA; 6 ug protein; 200-fold unlabelled probe used as competitor; LightShift Chemiluminescent EMSA kit binding reaction, 20 min, 6% native PAGE; buffer, salt, pH and temperature not stated", "settings": "protein: recombinant; tags: His; label: 5' biotin; blunt"}
{"binder": "B1", "values": [{"measurement": "binding result", "value": "binds"}]}
